Measurements reported in patent publication US20220033784A1 (priority 2020, published 2022).
Read-outs that look alike come from different tables or passages of the source.

Tests used:
Assay in all cases: cell-based or functional assay
[1] = biological target: T1, human high-affinity IL-2 receptor complex, IL-2 CD25/CD122/CD132 (α/β/γ), on cells (human, UniProt P01589 22-272; P14784 27-551; P31785 23-369)
T1 sequence (looked up) 1: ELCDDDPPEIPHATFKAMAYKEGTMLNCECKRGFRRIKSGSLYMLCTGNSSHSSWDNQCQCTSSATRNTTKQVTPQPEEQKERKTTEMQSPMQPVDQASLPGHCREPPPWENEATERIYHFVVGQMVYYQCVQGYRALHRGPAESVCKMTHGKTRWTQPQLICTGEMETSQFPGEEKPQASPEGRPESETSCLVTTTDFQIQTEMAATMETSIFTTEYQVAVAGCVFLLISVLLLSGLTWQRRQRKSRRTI
T1 sequence (looked up) 2: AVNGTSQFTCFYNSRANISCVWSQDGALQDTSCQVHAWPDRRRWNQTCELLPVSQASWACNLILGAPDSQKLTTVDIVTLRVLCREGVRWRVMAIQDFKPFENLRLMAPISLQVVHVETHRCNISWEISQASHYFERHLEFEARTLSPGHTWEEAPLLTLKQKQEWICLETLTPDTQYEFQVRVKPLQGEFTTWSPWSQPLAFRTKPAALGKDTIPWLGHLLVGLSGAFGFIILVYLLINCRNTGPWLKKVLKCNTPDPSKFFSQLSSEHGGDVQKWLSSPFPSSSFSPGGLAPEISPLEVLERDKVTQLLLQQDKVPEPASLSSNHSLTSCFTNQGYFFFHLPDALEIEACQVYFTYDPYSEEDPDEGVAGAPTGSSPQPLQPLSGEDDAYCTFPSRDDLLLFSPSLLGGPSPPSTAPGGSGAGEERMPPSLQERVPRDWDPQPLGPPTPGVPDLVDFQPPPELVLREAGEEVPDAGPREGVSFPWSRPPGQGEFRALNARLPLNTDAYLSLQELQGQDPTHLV
T1 sequence (looked up) 3: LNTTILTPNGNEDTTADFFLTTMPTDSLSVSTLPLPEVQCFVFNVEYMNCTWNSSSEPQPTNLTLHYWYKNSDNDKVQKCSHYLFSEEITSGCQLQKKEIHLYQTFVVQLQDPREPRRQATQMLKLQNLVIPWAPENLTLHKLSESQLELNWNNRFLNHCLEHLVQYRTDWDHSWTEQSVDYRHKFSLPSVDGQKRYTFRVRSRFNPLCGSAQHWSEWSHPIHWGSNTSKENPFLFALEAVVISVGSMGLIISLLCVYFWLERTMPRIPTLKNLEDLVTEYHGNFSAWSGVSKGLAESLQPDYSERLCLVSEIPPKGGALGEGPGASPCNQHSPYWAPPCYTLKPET

[2] = biological target: T1, human high-affinity IL-2 receptor …; remark: listed apart in the source
[3] = biological target: T2, human intermediate-affinity IL-2 receptor complex, IL-2 CD122/CD132 (β/γ), on cells (human, UniProt P14784 27-551; P31785 23-369)
T2 sequence (looked up) 1: T1 sequence (looked up) 2
T2 sequence (looked up) 2: T1 sequence (looked up) 3

[4] = biological target: T2, human intermediate-affinity IL-2 …; remark: listed apart in the source
[5] = biological target: T1, human high-affinity IL-2 receptor …; remark: listed apart in the source
[6] = biological target: T2, human intermediate-affinity IL-2 …; remark: listed apart in the source
[7] = biological target: T1, human high-affinity IL-2 receptor …; remark: listed apart in the source
[8] = biological target: T2, human intermediate-affinity IL-2 …; remark: listed apart in the source
[9] = biological target: T2, human intermediate-affinity IL-2 …; remark: listed apart in the source
[10] = biological target: T1, human high-affinity IL-2 receptor …; remark: listed apart in the source

B1: Fc-IL2v (Fc fusion)
chain: GGGGSGGGGSAPASSSTKKTQLQLEHLLLDLQMILNGINNYKNPKLTRMLTAKFAMPKKATELKHLQCLEEELKPLEEVLNGAQSKNFHLRPRDLISNINVIVLELKGSETTFMCEYADETATIVEFLNRWITFAQSIISTLT
- EC50 (read off the curve), pSTAT5 MFI in Treg cells of hPBMC [1]: ~8 nM
- EC50 (read off the curve), pSTAT5 MFI in Treg cells of hPBMC [2]: ~8 nM
- EC50 (read off the curve), pSTAT5 MFI in NK cells of hPBMC [3]: ~3 nM
- EC50, pSTAT5 in CD8 T cells of hPBMCs (flow cytometry) [4]: 11.3 nM
- EC50, pSTAT5 in NK cells of hPBMCs (flow cytometry) [4]: 1.53 nM
- EC50, pSTAT5 in Treg cells of hPBMCs (flow cytometry) [5]: 5.88 nM
- EC50, pSTAT5 induction in HH T cells (ELISA) [6]: 24.9 nM
- EC50, pSTAT5 induction in iTreg cells (ELISA) [7]: 0.31 nM
- EC50 (read off the curve), pSTAT5 MFI in NK cells of hPBMC [8]: ~3 nM
- EC50 (read off the curve), pSTAT5 MFI in NK cells of hPBMC [9]: ~3 nM
- EC50 (read off the curve), pSTAT5 MFI in Treg cells of hPBMC [10]: ~8 nM
